± gives the standard deviation of the averaged measurements or the uncertainty stated by the source.
What was measured:
[1] = duplex melting temperature (HRM, EvaGreen); higher = more stable duplex
Description: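 Listed DNA strand annealed 1:1 with its complementary strand (95 °C 5 min, 0.1 °C/s to 20 °C). Melted in 1x NNE buffer (500 mM NaCl, 10 mM Na2HPO4, 1 mM EDTA, pH 7.0) with 1x EvaGreen on a LightCycler96 (37 to 97 °C, 0.1 °C/s). Tm is the peak of -dF/dT at the stated total duplex concentration; 4 replicates are averaged. PS oligos are non-stereospecific (Rp/Sp mixtures).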

[2] = duplex formation free energy ΔG50 (Van't Hoff fit of HRM Tm); higher = less stable duplex; conditions: temperature for dG: 50 °C, NaCl: 500 mM (unadjusted)
Description: (§1)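 Duplex of the listed DNA strand with its complement, in 1x NNE buffer (500 mM NaCl, pH 7.0) with 1x EvaGreen. ΔH and ΔS come from a Van't Hoff linear fit of 1/Tm against ln(CT/4) over 1-20 uM, using HRM Tm values.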

[3] = duplex formation enthalpy ΔH (Van't Hoff fit of HRM Tm); higher = less exothermic duplex formation; conditions: temperature for dG: 50 °C, NaCl: 500 mM (unadjusted)
Description: as §1

[4] = duplex formation entropy ΔS (Van't Hoff fit of HRM Tm); higher = smaller entropy loss on duplex formation; conditions: temperature for dG: 50 °C, NaCl: 500 mM (unadjusted)
Description: as §1

[5] = duplex concentration 1 µM, backbone: PO-PO (both strands phosphodiester DNA)
[6] = duplex concentration 1 µM, backbone: PS-PS (both strands fully phosphorothioate)
[7] = duplex concentration 2.5 µM, backbone: PO-PO (both strands phosphodiester DNA)
[8] = duplex concentration 2.5 µM, backbone: PS-PO (listed strand fully phosphorothioate, complement phosphodiester)
[9] = duplex concentration 2.5 µM, backbone: PS-PS (both strands fully phosphorothioate)
[10] = duplex concentration 5 µM, backbone: PO-PO (both strands phosphodiester DNA)
[11] = duplex concentration 5 µM, backbone: PS-PO (listed strand fully phosphorothioate, complement phosphodiester)
[12] = duplex concentration 5 µM, backbone: PS-PS (both strands fully phosphorothioate)
[13] = duplex concentration 7.5 µM, backbone: PO-PO (both strands phosphodiester DNA)
[14] = duplex concentration 7.5 µM, backbone: PS-PO (listed strand fully phosphorothioate, complement phosphodiester)
[15] = duplex concentration 7.5 µM, backbone: PS-PS (both strands fully phosphorothioate)
[16] = duplex concentration 10 µM, backbone: PO-PO (both strands phosphodiester DNA)
[17] = duplex concentration 10 µM, backbone: PS-PO (listed strand fully phosphorothioate, complement phosphodiester)
[18] = duplex concentration 10 µM, backbone: PS-PS (both strands fully phosphorothioate)
[19] = duplex concentration 15 µM, backbone: PO-PO (both strands phosphodiester DNA)
[20] = duplex concentration 15 µM, backbone: PS-PO (listed strand fully phosphorothioate, complement phosphodiester)
[21] = duplex concentration 15 µM, backbone: PS-PS (both strands fully phosphorothioate)
[22] = duplex concentration 20 µM, backbone: PO-PO (both strands phosphodiester DNA)
[23] = duplex concentration 20 µM, backbone: PS-PO (listed strand fully phosphorothioate, complement phosphodiester)
[24] = duplex concentration 20 µM, backbone: PS-PS (both strands fully phosphorothioate)
[25] = backbone: PO-PO (both strands phosphodiester DNA)
[26] = backbone: PS-PO (listed strand fully phosphorothioate, complement phosphodiester)
[27] = backbone: PS-PS (both strands fully phosphorothioate)
[28] = duplex concentration 1 µM, backbone: PS-PO (listed strand fully phosphorothioate, complement phosphodiester)

Sequence | duplex melting temperature [1, 5] | duplex melting temperature [1, 6] | duplex melting temperature [1, 7] | duplex melting temperature [1, 8] | duplex melting temperature [1, 9] | duplex melting temperature [1, 10] | duplex melting temperature [1, 11] | duplex melting temperature [1, 12] | duplex melting temperature [1, 13] | duplex melting temperature [1, 14] | duplex melting temperature [1, 15] | duplex melting temperature [1, 16] | duplex melting temperature [1, 17] | duplex melting temperature [1, 18] | duplex melting temperature [1, 19] | duplex melting temperature [1, 20] | duplex melting temperature [1, 21] | duplex melting temperature [1, 22] | duplex melting temperature [1, 23] | duplex melting temperature [1, 24] | duplex formation free energy ΔG50 [2, 25] | duplex formation free energy ΔG50 [2, 26] | duplex formation free energy ΔG50 [2, 27] | duplex formation enthalpy ΔH [3, 25] | duplex formation enthalpy ΔH [3, 26] | duplex formation enthalpy ΔH [3, 27] | duplex formation entropy ΔS [4, 25] | duplex formation entropy ΔS [4, 26] | duplex formation entropy ΔS [4, 27] | duplex melting temperature [1, 28]
TGTCGCACCCTACTA | 62.8 ± 2.6 °C | 49.8 ± 0.68 °C | 66.1 °C | 59.14 ± 0.13 °C | 53.99 ± 0.17 °C | 68.24 ± 0.43 °C | 61.72 ± 0.17 °C | 56.51 ± 0.21 °C | 69.66 ± 0.3 °C | 62.92 ± 0.17 °C | 57.65 ± 0.22 °C | 71.02 ± 0.2 °C | 64.01 ± 0.12 °C | 58.5 ± 0.23 °C | 72.66 ± 0.19 °C | 65.449 ± 0.05 °C | 59.67 ± 0.14 °C | 73.62 ± 0.15 °C | 66.44 ± 0.098 °C | 60.75 ± 0.17 °C | -12.1 ± 0.25 kcal/mol | -10.95 ± 0.05 kcal/mol | -9.838 ± 0.072 kcal/mol | -63.3 ± 4.2 kcal/mol | -64.2 ± 1.2 kcal/mol | -60.7 ± 3.1 kcal/mol | -158 ± 12 cal/mol/K | -165 ± 3.6 cal/mol/K | -157 ± 9.5 cal/mol/K | 
TAGACGCGGCCTCTTTCC | 73.91 ± 0.44 °C |  | 74.76 ± 0.23 °C | 69 ± 0.71 °C |  | 76.52 ± 0.15 °C | 70.8 ± 0.46 °C |  | 77.7 ± 0.27 °C | 71.32 ± 0.62 °C | 66.47 ± 0.089 °C | 78.58 ± 0.21 °C | 72.01 ± 0.38 °C | 67.44 ± 0.059 °C | 79.83 ± 0.13 °C | 73.3 ± 0.19 °C | 68.13 ± 0.13 °C | 80.63 ± 0.22 °C | 73.84 ± 0.11 °C | 68.81 ± 0.13 °C | -16.4 ± 0.68 kcal/mol | -14.9 ± 0.32 kcal/mol | -13.4 ± 0.56 kcal/mol | -99.8 ± 8.6 kcal/mol | -103 ± 5.1 kcal/mol | -101 ± 11 kcal/mol | -258 ± 24 cal/mol/K | -272 ± 15 cal/mol/K | -272 ± 32 cal/mol/K | 67.6 °C
CGTGTGGATAATTAGCT | 61.98 ± 0.083 °C | 45.73 ± 0.44 °C | 64.1 ± 0.3 °C | 56.74 ± 0.17 °C | 48.55 ± 0.15 °C | 65.87 ± 0.1 °C | 58.92 ± 0.14 °C | 50.38 ± 0.16 °C | 66.87 ± 0.1 °C | 59.81 ± 0.096 °C | 51.21 ± 0.21 °C | 67.8 ± 0.11 °C | 60.627 ± 0.006 °C | 51.88 ± 0.24 °C | 68.959 ± 0.05 °C | 61.686 ± 0.014 °C | 52.84 ± 0.21 °C | 69.9 ± 0.083 °C | 62.48 ± 0.14 °C | 53.67 ± 0.26 °C | -12.67 ± 0.099 kcal/mol | -10.86 ± 0.074 kcal/mol | -8.757 ± 0.024 kcal/mol | -83.9 ± 2 kcal/mol | -81 ± 2.4 kcal/mol | -80.3 ± 3 kcal/mol | -220 ± 5.9 cal/mol/K | -217 ± 7.2 cal/mol/K | -221 ± 9.2 cal/mol/K | 
AGCTGAGCCTGCCGCC |  | 61.14 ± 0.19 °C | 77.27 ± 0.16 °C | 69.3 ± 0.33 °C | 64.02 ± 0.13 °C | 78.56 ± 0.24 °C | 71.58 ± 0.18 °C | 66.05 ± 0.17 °C | 79.697 ± 0.042 °C | 72.92 ± 0.22 °C | 67.37 ± 0.12 °C | 80.57 ± 0.19 °C | 73.99 ± 0.21 °C | 68.22 ± 0.11 °C | 81.65 ± 0.17 °C | 75.27 ± 0.28 °C | 69.27 ± 0.11 °C | 82.38 ± 0.13 °C | 76.21 ± 0.3 °C | 70.31 ± 0.28 °C | -16.8 ± 0.39 kcal/mol | -13.04 ± 0.1 kcal/mol | -12.29 ± 0.078 kcal/mol | -98.2 ± 4.6 kcal/mol | -69.1 ± 1.6 kcal/mol | -75.3 ± 1.6 kcal/mol | -252 ± 13 cal/mol/K | -174 ± 4.5 cal/mol/K | -195 ± 4.6 cal/mol/K | 65.9 ± 0.78 °C
GCTGTGAAACAATGTAG | 60.4 ± 1.3 °C | 43.66 ± 0.19 °C | 62.76 ± 0.31 °C | 55.41 ± 0.29 °C | 45.72 ± 0.19 °C | 64.54 ± 0.42 °C | 57.39 ± 0.24 °C | 47.54 ± 0.13 °C | 65.61 ± 0.42 °C | 58.44 ± 0.21 °C | 48.34 ± 0.13 °C | 66.58 ± 0.4 °C | 59.19 ± 0.24 °C | 49.09 ± 0.059 °C | 67.8 ± 0.33 °C | 60.21 ± 0.11 °C | 50.25 ± 0.24 °C | 68.65 ± 0.32 °C | 61.12 ± 0.092 °C | 51.09 ± 0.3 °C | -12.3 ± 0.16 kcal/mol | -10.46 ± 0.049 kcal/mol | -8.078 ± 0.024 kcal/mol | -82.5 ± 3.5 kcal/mol | -78.8 ± 1.9 kcal/mol | -82.8 ± 2.5 kcal/mol | -217 ± 10 cal/mol/K | -211 ± 5.7 cal/mol/K | -231 ± 7.8 cal/mol/K | 52.85 ± 0.06 °C
CTCGGAGGCCCCATTTA |  | 56.27 ± 0.32 °C | 69.45 ± 0.55 °C | 63.65 ± 0.44 °C | 59.31 ± 0.12 °C | 72.34 ± 0.17 °C | 66.33 ± 0.23 °C | 61.51 ± 0.1 °C | 73.72 ± 0.22 °C | 67.63 ± 0.23 °C | 62.63 ± 0.089 °C | 74.68 ± 0.39 °C | 68.67 ± 0.14 °C | 63.34 ± 0.086 °C | 76.04 ± 0.34 °C | 69.97 ± 0.17 °C | 64.55 ± 0.08 °C | 76.97 ± 0.28 °C | 70.91 ± 0.14 °C | 65.31 ± 0.13 °C | -13.2 ± 0.19 kcal/mol | -11.87 ± 0.061 kcal/mol | -11.22 ± 0.074 kcal/mol | -68.7 ± 2.7 kcal/mol | -66 ± 1.2 kcal/mol | -73.9 ± 2 kcal/mol | -172 ± 7.8 cal/mol/K | -167 ± 3.5 cal/mol/K | -194 ± 6.1 cal/mol/K | 60.53 ± 0.43 °C
GTGGTACAAATGCGACC | 66.7 °C | 49.91 ± 0.4 °C | 68.46 ± 0.35 °C | 61.19 ± 0.13 °C | 52.86 ± 0.053 °C | 70.27 ± 0.1 °C | 63.12 ± 0.081 °C | 54.891 ± 0.046 °C | 71.34 ± 0.084 °C | 64.14 ± 0.075 °C | 55.93 ± 0.084 °C | 72.06 ± 0.12 °C | 65.04 ± 0.1 °C | 56.63 ± 0.12 °C | 73.205 ± 0.062 °C | 66.133 ± 0.0075 °C | 57.534 ± 0.054 °C | 74.14 ± 0.12 °C | 66.91 ± 0.08 °C | 58.25 ± 0.083 °C | -13.92 ± 0.12 kcal/mol | -11.87 ± 0.036 kcal/mol | -9.816 ± 0.052 kcal/mol | -88 ± 1.9 kcal/mol | -80.9 ± 0.88 kcal/mol | -77.3 ± 2.9 kcal/mol | -229 ± 5.5 cal/mol/K | -214 ± 2.6 cal/mol/K | -209 ± 8.9 cal/mol/K | 58.59 ± 0.28 °C
TGTAAGACTTCTGCCAGAAA | 69.04 ± 0.47 °C | 51.3 ± 0.66 °C | 70.48 ± 0.32 °C | 62.5 ± 0.74 °C | 54 ± 0.63 °C | 71.8 ± 0.086 °C | 64.36 ± 0.58 °C | 56.14 ± 0.29 °C | 72.66 ± 0.2 °C | 65.49 ± 0.58 °C | 57.54 ± 0.21 °C | 73.31 ± 0.13 °C | 66.18 ± 0.34 °C | 58.2 °C | 73.99 ± 0.12 °C | 67.16 ± 0.27 °C |  |  | 67.83 ± 0.18 °C |  | -16.7 ± 0.45 kcal/mol | -12.4 ± 0.17 kcal/mol | -10.11 ± 0.025 kcal/mol | -126 ± 6.9 kcal/mol | -87.2 ± 3.7 kcal/mol | -73.5 ± 1.4 kcal/mol | -339 ± 20 cal/mol/K | -231 ± 11 cal/mol/K | -196 ± 4.2 cal/mol/K | 
AATGTCGAACAGCAATT | 63.06 ± 0.22 °C | 47.17 ± 0.34 °C | 65.17 ± 0.47 °C | 59.08 ± 0.19 °C | 50.7 ± 0.2 °C | 67.17 ± 0.36 °C | 61.32 ± 0.12 °C | 53 ± 0.2 °C | 68.45 ± 0.29 °C | 62.61 ± 0.066 °C | 54.22 ± 0.19 °C | 69.46 ± 0.13 °C | 63.46 ± 0.16 °C | 54.99 ± 0.23 °C | 70.74 ± 0.12 °C | 64.55 ± 0.19 °C | 56.34 ± 0.18 °C | 71.86 ± 0.12 °C | 65.45 ± 0.21 °C | 57.25 ± 0.45 °C | -12.5 ± 0.15 kcal/mol | -11.23 ± 0.064 kcal/mol | -9.264 ± 0.033 kcal/mol | -74.4 ± 2.7 kcal/mol | -74.3 ± 1.7 kcal/mol | -63.7 ± 2.3 kcal/mol | -192 ± 8 cal/mol/K | -195 ± 5.2 cal/mol/K | -169 ± 7 cal/mol/K | 56.56 ± 0.11 °C

Source: the supplement of paper PMC9116672
